# The supplement of paper PMC10567573
# ± gives the standard deviation.
# Assay: protein stability index of a GFP-peptide fusion (GPS, HEK-293T) (PSI 1-6); higher = more stable
# [1] = treatment: DMSO, c terminus: a fixed tail appended
# [2] = treatment: MLN4924 1 uM, 8 h, c terminus: a fixed tail appended
# [3] = treatment: DMSO, c terminus: native
# [4] = treatment: MLN4924 1 uM, 8 h, c terminus: native
# 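Also: 24-mer peptide tiles fused after GFP, lentivirally expressed, FACS-sorted into six equal bins by GFP/DsRed ratio, decoded by Illumina sequencing, PSI is the read-weighted mean bin number.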
Sequence,protein stability index [1],protein stability index [2],protein stability index [3],protein stability index [4]
SSARIPKCPWMEGGEMSPQVETSI [INTS4],3.9 ± 0.14,4.12 ± 0.1,–,–
SSDRSRDSSHERTESQLTPCIRNV [BTBD10],5.06 ± 0.065,5 ± 0.2,–,–
SSEHFEKLHEIFRGLHEDLQGVPE [VTI1B],4.11 ± 0.32,3.97 ± 0.12,–,–
SSGEPVDYNVDIGIPLDGETEEL [MYOZ1],–,–,5.5 ± 0.21,5.23 ± 0.17
SSQLAQMQCLISNVEAQLSEIRCD [KRT36],3 ± 0.075,3.1 ± 0.31,–,–
SSRPENIPPKEFHFRHPKRSVSLS [BNIP3L],4.29 ± 0.35,4.24 ± 0.051,–,–
SSSYSVSSPRSVDSYSSTQHVPEE [ATF6],5.16 ± 0.14,4.99 ± 0.15,–,–
SSVCVQGRCIHAGCDRIIGSKKKF [ADAMTS4],3.57 ± 0.26,3.22 ± 0.38,–,–
SSVSDVKFSHSGRYMLTRDYLTVK [PPP2R2C],2.88 ± 0.24,2.87 ± 0.39,–,–
STDTAVTNEWEKRLSTSPVRLAAR [EPB41L3],4.3 ± 0.26,4.44 ± 0.18,–,–
STFSTNYRSLGSVQAPSYGARPVS [KRT18],3.53 ± 0.16,3.61 ± 0.2,–,–
STLLGEMDLLTQSLGVDTLPPPDP [APBB1IP],3.79 ± 0.42,4.03 ± 0.41,–,–
STLPRSGSSGGQQPSGMKEGVKRY [CHCHD6],4.49 ± 0.35,4.8 ± 0.29,–,–
STLPSLREEEEQVRAHAPRGNAPP [KCNG1],4.43 ± 0.23,4.91 ± 0.35,–,–
STPLSPAYISLVEEEDQHMKLSLG [KLHL13],4.27 ± 0.16,4.28 ± 0.19,–,–
STPRPSITPTKKIELDRTIMPDGT [C2CD2L],4.76 ± 0.24,4.87 ± 0.17,–,–
STVKDCATIFALSTMTSSVQIYNL [ATL3],3.08 ± 0.68,3.25 ± 0.59,–,–
SVHVPGPHAMTIQELVDYVNARQK [PTPN9],3.49 ± 0.34,3.47 ± 0.28,–,–
SVIVLDINDNAPTFQSSVLRVGIP [PCDHGC5],2.18 ± 0.11,2.21 ± 0.081,–,–
SVRRSESWARPRPDEERPLRRPRP [RASAL3],4.92 ± 0.096,4.68 ± 0.29,–,–
SWACAFTNALTHTVAMSTLNFCGP [OR3A1],3.47 ± 0.13,3.15 ± 0.049,–,–
SWRVGVVRVRQDSGAEGHSHSCYH [TRIM35],3.02 ± 0.41,3.2 ± 0.32,–,–

Sequence,protein stability index [1],protein stability index [2],protein stability index [3],protein stability index [4]
SWSQYEMPEFSSDSTMRILSNLVQ [RTP4],2.48 ± 0.24,2.59 ± 0.3,–,–
SWVDDTPFNKVQSARFWIPGEPNN [CD207],2.44 ± 0.15,2.51 ± 0.45,–,–
SYFDMLYPEDSSWAAKAPGASSRE [SPDEF],3.56 ± 0.13,3.52 ± 0.22,–,–
SYPNPNEDKCPGNYTNPLKVQTVI [TMEM192],3.17 ± 0.36,3.29 ± 0.22,–,–
TAGLLREQVAQLKQKVMTHVSNGC [JUNB],3.25 ± 0.2,3.25 ± 0.32,–,–
TAKDFIVGKSLTILGRTFFIYDCD [EFHC1],2.93 ± 0.49,2.28 ± 0.34,–,–
TALGGQCVDRQEVAEITKQLPPVV [TCAP],4.07 ± 0.25,4.27 ± 0.13,–,–
TAPLPMPEGPEPAAPGKQPGRGHT [ELOA2],5.53 ± 0.15,5.27 ± 0.2,–,–
TDDSYSCHCLKGFTLNPDKKTCRR [MATN2],3.27 ± 0.78,4.03 ± 0.7,–,–
TEATISIREDEVHRLGSPYGHCTA [SCNN1D],3.93 ± 0.29,3.88 ± 0.16,–,–
TEKSGKREFDVRQTPQVNINPFTP [WEE1],4.42 ± 0.25,4.25 ± 0.094,–,–
TESQLTPCIRNVTSPTRQHHVERE [BTBD10],4.99 ± 0.16,4.95 ± 0.17,–,–
TFASLETVGIYFGLVYRIHSVLQG [TMEM40],3.59 ± 0.44,3.24 ± 0.23,–,–
TFIVSCKFSPDGKYVVSGFDVDHG [WDR88],2.79 ± 0.39,2.81 ± 0.53,–,–
TFQEPLYPALRLWEGAISIPRLP [TRIM14],–,–,2.65 ± 0.62,2.67 ± 0.66
TFRQYCGAACTCHVRNPLSACSIM [RNF208],2.21 ± 0.4,2.2 ± 0.27,–,–
TGTSNTTAIKSIEFARKGSCFLIN [RBBP5],2.42 ± 0.26,2.42 ± 0.22,–,–
THLENPTRYHLQQARRQQVKQYLS [TFE3],3.38 ± 0.17,3.64 ± 0.22,–,–
TIAPTLIADLFVADQRSRMLSIFY [SPNS1],2.87 ± 0.66,2.66 ± 0.6,–,–
TIEELQQKILCSKSENARLVVQID [KRT33B],3.38 ± 0.19,3.28 ± 0.53,–,–
TIEGTSDDLTVVDAASLRRQIIKL [MFF],4 ± 0.34,4.08 ± 0.16,–,–
TITEEIRDGKVISSREHVQSRPL [KRT36],–,–,5.23 ± 0.29,5.26 ± 0.21
